Article PMC7229184, “Cryo-EM structure of the volume-regulated anion channel LRRC8D isoform identifies features important for substrate permeation” (Communications Biology, 2020)

Molecular target: the molecule itself
Assay: cryo-EM structure; purified HsLRRC8D in 50 mM Tris pH 8.0, 150 mM NaCl, 5 mM dithiothreitol, 0.1% digitonin, 3 mg/mL, vitrified; single-particle analysis, C2 symmetry imposed; homo-hexamer ('dimer of trimers')

B1: human LRRC8D (leucine-rich repeat-containing 8 isoform D) wild-type protein (natural protein)
chain: MFTLAEVASLNDIQPTYRILKPWWDVFMDYLAVVMLMVAIFAGTMQLTKDQVVCLPVLPSPVNSKAHTPPGNAEVTTNIPKMEAATNQDQDGRTTNDISFGTSAVTPDIPLRATYPRTDFALPNQEAKKEKKDPTGRKTNLDFQQYVFINQMCYHLALPWYSKYFPYLALIHTIILMVSSNFWFKYPKTCSKVEHFVSILGKCFESPWTTKALSETACEDSEENKQRITGAQTLPKHVSTSSDEGSPSASTPMINKTGFKFSAEKPVIEVPSMTILDKKDGEQAKALFEKVRKFRAHVEDSDLIYKLYVVQTVIKTAKFIFILCYTANFVNAISFEHVCKPKVEHLIGYEVFECTHNMAYMLKKLLISYISIICVYGFICLYTLFWLFRIPLKEYSFEKVREESSFSDIPDVKNDFAFLLHMVDQYDQLYSKRFGVFLSEVSENKLREISLNHEWTFEKLRQHISRNAQDKQELHLFMLSGVPDAVFDLTDLDVLKLELIPEAKIPAKISQMTNLQELHLCHCPAKVEQTAFSFLRDHLRCLHVKFTDVAEIPAWVYLLKNLRELYLIGNLNSENNKMIGLESLRELRHLKILHVKSNLTKVPSNITDVAPHLTKLVIHNDGTKLLVLNSLKKMMNVAELELQNCELERIPHAIFSLSNLQELDLKSNNIRTIEEIISFQHLKRLTCLKLWHNKIVTIPPSITHVKNLESLYFSNNKLESLPVAVFSLQKLRCLDVSYNNISMIPIEIGLLQNLQHLHITGNKVDILPKQLFKCIKLRTLNLGQNCITSLPEKVGQLSQLTQLELKGNCLDRLPAQLGQCRMLKKSGLVVEDHLFDTLPLEVKEALNQDINIPFANGI
notes: Residues of the TEV site may remain at the C-terminus after cleavage; also called HsLRRC8D; not shown: GFP, C-terminal, cleaved; His8, C-terminal, cleaved
- stoichiometry N: 6
